Like-named read-outs stand apart in the source and are kept apart here.

The source of these data is PMC10292688.

Experiment in all cases: SAXS
One assay addresses AIF H454A mutant (UniProt O95831).
The target in assay [1] is AIF R529A mutant (Cβ-clasp) (UniProt O95831).
For assay [2] the target is unchanged. The source holds these as a separate data set.

What is called stoichiometry N is the number of molecules, sites or subunits per partner or assembly. “AIF H454A mutant (from UniProt O95831 55-613) (natural protein)”: in the assay with AIF H454A mutant, the stoichiometry N was 2.

Turning to “AIF R529A mutant (Cβ-clasp) (from UniProt O95831 55-613) (natural protein)”, the stoichiometry N in assay [1] and in assay [2] was 2 each time.
